The chains are these.
B1: Transcription factor SOX-4, residues 60 to 127; numbered along this chain, Q06945 (parent)
chain: KRPMNAFMVWSQIERRKIMEQSPDMHNAEISKRLGKRWKLLKDSDKIPFIREAERLRLKHMADYPDYK
B2: POU domain, class 3, transcription factor 3, residues 408 to 463; numbered along this chain, P20264 (parent)
chain: KKRTSIEVSVKGALESHFLKCPKPSAQEITNLADSLQLEKEVVRVWFCNRRQKEKR

± gives the uncertainty stated by the source.

Variants of B1 are the subject of the first series. Briefly: abundance fitness (aPCA) (normalised: wild type 0, dead -1); higher = more abundant; growth selection in yeast, the domain comes from the species named. To be noted: Homo sapiens.
Take M19G: the abundance fitness was -0.452 ± 0.053.
Still for that read-out and setting: then K36N, with 0.04 ± 0.24; and H60K, with 0.023 ± 0.1; and H60A, with -0.055 ± 0.045.
Still for that read-out and setting: then N27L, with -0.162 ± 0.038.
Still for that read-out and setting: the value for P23M was -0.817 ± 0.077.
On to P23Q, for which the abundance fitness is -0.482 ± 0.09.
On the same count and under the same terms, then K59S, with -0.024 ± 0.039.
Same read-out and setting: the value for R37F was -0.714 ± 0.21; that for R37A was 0.133 ± 0.053; that for L56I was -0.149 ± 0.093.
Same read-out and setting: the value for L56G was -0.341 ± 0.071; that for I30K was -0.999 ± 0.12.
As for E20Y, the abundance fitness was -0.88 ± 0.33.
For the variant E20R, the abundance fitness is -0.364 ± 0.083.
On the same count and under the same terms, the value for E20I was -0.227 ± 0.14; that for N5H was -0.632 ± 0.18.
Still for that read-out and setting: then Q12D, with 0.179 ± 0.12; and Q12N, with -0.015 ± 0.099.
As for F49T, the abundance fitness was -0.623 ± 0.13.
Same read-out and setting: then E52W, with -0.58 ± 0.14.
Same read-out and setting: then E52G, with -0.375 ± 0.13.
The same measure, in the same setting: the value for P3F was -0.186 ± 0.056; that for P3A was -0.114 ± 0.053; that for D63Y was -0.233 ± 0.057.
For the variant D45C, the abundance fitness was -0.758 ± 0.25.
In the case of D45Y, the abundance fitness was -0.361 ± 0.21.
For the variant R2A, the abundance fitness was -0.08 ± 0.093.
Still for that read-out and setting: then R2F, with -0.113 ± 0.12; and K32P, with -0.498 ± 0.16; and G35I, with 0.156 ± 0.042.
Consider G35P, for which the abundance fitness was -0.496 ± 0.13.
On the same count and under the same terms, then M25R, with -0.591 ± 0.068.
On the same count and under the same terms, the value for M25T was -0.189 ± 0.078.
As to P48H, the abundance fitness is -0.31 ± 0.048.
Consider D43V, for which the abundance fitness is -0.262 ± 0.039.
The same measure, in the same setting: then K39A, with 0.093 ± 0.063; and R33K, with 0.048 ± 0.13; and A62C, with -0.15 ± 0.049.
Same read-out and setting: the value for A62R was -0.033 ± 0.041; that for A6R was -0.713 ± 0.054.
As for K42S, the abundance fitness was 0.13 ± 0.053.
On the same count and under the same terms, then K42C, with -0.28 ± 0.2; and E29G, with -0.628 ± 0.089.
Consider E29Q, for which the abundance fitness is -0.367 ± 0.068.
Same read-out and setting: the value for W38N was -0.874 ± 0.094; that for W38Y was -0.548 ± 0.089; that for E54K was -0.369 ± 0.06.
For E54W, the abundance fitness is -0.643 ± 0.09.
As for E54Q, the abundance fitness is -0.071 ± 0.062.
On the same count and under the same terms, then D24G, with -0.123 ± 0.042.
Still for that read-out and setting: the value for Q21D was -0.346 ± 0.1.
Still for that read-out and setting: then Q21V, with -0.2 ± 0.061.
As to Q21E, the abundance fitness was -0.062 ± 0.12.
Still for that read-out and setting: then I50N, with -0.284 ± 0.19.
In the case of I50Q, the abundance fitness is -0.021 ± 0.1.
Turning to R15W, the abundance fitness was -0.502 ± 0.063.
The same measure, in the same setting: then K17M, with -0.401 ± 0.13; and L40T, with 0.019 ± 0.065; and S22M, with -0.276 ± 0.055.
On the same count and under the same terms, then S22K, with -0.191 ± 0.049; and S11C, with -0.206 ± 0.047.
Still for that read-out and setting: the value for R55K was -0.08 ± 0.072.
For W10F, the abundance fitness was -0.155 ± 0.12.
Same read-out and setting: then H26K, with 0.138 ± 0.15; and H26I, with -0.088 ± 0.11; and P65A, with -0.267 ± 0.083.
Still for that read-out and setting: then P65Y, with -0.124 ± 0.24.
On to P65T, for which the abundance fitness was -0.064 ± 0.075.
The same measure, in the same setting: the value for A53F was -0.841 ± 0.27; that for A53Y was -0.347 ± 0.12.
On the same count and under the same terms, the value for A28Q was -0.145 ± 0.076; that for A28L was -0.195 ± 0.068; that for L41F was -0.684 ± 0.2.
Turning to M8A, the abundance fitness was 0.023 ± 0.044.
On to M8Q, for which the abundance fitness amounted to 0.193 ± 0.059.
Same read-out and setting: the value for R57A was 0.06 ± 0.062.

A further series covers variants of B2. The series is described as above. The conditions noted are these: Homo sapiens.
For the variant K2N, the abundance fitness is -0.094 ± 0.14.
On to K2Q, for which the abundance fitness was -0.255 ± 0.23.
Take K2M: the abundance fitness was -0.066 ± 0.12.
The same measure, in the same setting: then K2E, with -0.054 ± 0.13; and K2D, with -0.098 ± 0.14; and K2F, with 0.056 ± 0.16.
Regarding K2C, the abundance fitness is -0.332 ± 0.2.
Same read-out and setting: then K2G, with -0.025 ± 0.089; and K2S, with -0.077 ± 0.098.
Same read-out and setting: the value for K2T was -0.008 ± 0.11; that for K2P was -0.305 ± 0.15.
For the variant K2H, the abundance fitness was -0.38 ± 0.36.
Still for that read-out and setting: then K2I, with -0.374 ± 0.17; and K2A, with -0.13 ± 0.12; and K2R, with -0.086 ± 0.081.
K2W: the abundance fitness was -0.321 ± 0.12.
On the same count and under the same terms, the value for K2V was -0.048 ± 0.1; that for K2Y was -0.391 ± 0.14; that for V8P was 0.195 ± 0.12.
The same measure, in the same setting: the value for V8H was -0.052 ± 0.15; that for V8F was 0.04 ± 0.27; that for V8A was -0.032 ± 0.097.
Still for that read-out and setting: the value for V8T was 0.161 ± 0.1; that for V8I was 0.1 ± 0.084.
Consider V8E, for which the abundance fitness was 0.088 ± 0.096.
Consider V8D, for which the abundance fitness was -0.075 ± 0.13.
The same measure, in the same setting: the value for V8S was 0.218 ± 0.092; that for V8C was -0.171 ± 0.11.
On the same count and under the same terms, the value for V8G was 0.055 ± 0.063; that for V8K was 0.068 ± 0.11.
Still for that read-out and setting: the value for V8R was 0.001 ± 0.062.
In the case of V8Y, the abundance fitness was -0.369 ± 0.21.
As for V8N, the abundance fitness was determined as 0.039 ± 0.17.
On the same count and under the same terms, the value for V8L was 0.1 ± 0.08.
On to V8M, for which the abundance fitness turned out to be 0.098 ± 0.12.
Still for that read-out and setting: then V8W, with -0.141 ± 0.1; and T4H, with -0.405 ± 0.23.
For the variant T4C, the abundance fitness is -0.205 ± 0.11.
The same measure, in the same setting: the value for T4F was -0.116 ± 0.18; that for T4G was -0.077 ± 0.066.
T4V: the abundance fitness is -0.095 ± 0.073.
On to T4M, for which the abundance fitness was -0.064 ± 0.08.
The same measure, in the same setting: then T4S, with -0.077 ± 0.078; and T4E, with -0.082 ± 0.16; and T4P, with -0.257 ± 0.16.
T4I: the abundance fitness is -0.014 ± 0.17.
Turning to T4A, the abundance fitness was -0.17 ± 0.079.
T4L: the abundance fitness is -0.093 ± 0.074.
Same read-out and setting: then T4W, with -0.572 ± 0.11; and T4Y, with -0.19 ± 0.11; and T4R, with -0.26 ± 0.067.
For T4Q, the abundance fitness stood at 0.005 ± 0.11.
Same read-out and setting: then T4K, with -0.142 ± 0.12.
On the same count and under the same terms, the value for T4D was -0.279 ± 0.14; that for L14C was -0.662 ± 0.12; that for L14Y was -0.815 ± 0.18.
Still for that read-out and setting: then L14N, with -1.01 ± 0.18; and L14G, with -0.958 ± 0.083.
Take L14I: the abundance fitness is -0.45 ± 0.2.
On the same count and under the same terms, then L14A, with -0.8 ± 0.1.
For L14V, the abundance fitness was -0.899 ± 0.1.
With L14Q, the abundance fitness is -0.942 ± 0.17.
With L14T, the abundance fitness is -0.839 ± 0.12.
For L14E, the abundance fitness is -1.11 ± 0.16.
Still for that read-out and setting: the value for L14F was -0.899 ± 0.29.
On the same count and under the same terms, then L14D, with -0.697 ± 0.22; and L14S, with -0.87 ± 0.097.
On the same count and under the same terms, the value for L14P was -1 ± 0.18; that for L14W was -1.01 ± 0.12; that for R3M was 0.045 ± 0.11.
Take R3V: the abundance fitness is 0.031 ± 0.079.
On the same count and under the same terms, then R3Q, with -0.217 ± 0.13; and R3T, with -0.077 ± 0.094.
On the same count and under the same terms, then R3F, with -0.119 ± 0.15; and R3P, with -0.2 ± 0.13.
Regarding R3N, the abundance fitness was -0.048 ± 0.2.
Still for that read-out and setting: then R3H, with -0.273 ± 0.15; and R3S, with 0.026 ± 0.081; and R3A, with -0.15 ± 0.075.
Regarding R3I, the abundance fitness is -0.023 ± 0.17.
Turning to R3G, the abundance fitness stood at 0.04 ± 0.064.
With R3Y, the abundance fitness is -0.267 ± 0.19.
Consider R3K, for which the abundance fitness amounted to 0.067 ± 0.13.
Still for that read-out and setting: the value for R3C was -0.415 ± 0.15; that for R3W was -0.155 ± 0.088; that for R3L was 0.055 ± 0.087.
Still for that read-out and setting: then A13L, with -0.093 ± 0.077; and A13C, with -0.199 ± 0.11; and A13N, with -0.274 ± 0.18.
Still for that read-out and setting: the value for A13G was -0.46 ± 0.067.

These data come from the Human Domainome abundance scans (Beltran et al. 2025).
